This experiment addresses VLP2 (virus-like particles, capsid protein particles of AAV serotype 2) (AAV serotype 2 (AAV2)) (UniProt P03135). Kind of experiment: ELISA on immobilised VLP2 (culture supernatant, anti-His detection); A450 after 1:1 0.5 M NaOH, 30 min, 30°C divided by A450 untreated.
UniProt P03135, sequence (P03135 whole entry): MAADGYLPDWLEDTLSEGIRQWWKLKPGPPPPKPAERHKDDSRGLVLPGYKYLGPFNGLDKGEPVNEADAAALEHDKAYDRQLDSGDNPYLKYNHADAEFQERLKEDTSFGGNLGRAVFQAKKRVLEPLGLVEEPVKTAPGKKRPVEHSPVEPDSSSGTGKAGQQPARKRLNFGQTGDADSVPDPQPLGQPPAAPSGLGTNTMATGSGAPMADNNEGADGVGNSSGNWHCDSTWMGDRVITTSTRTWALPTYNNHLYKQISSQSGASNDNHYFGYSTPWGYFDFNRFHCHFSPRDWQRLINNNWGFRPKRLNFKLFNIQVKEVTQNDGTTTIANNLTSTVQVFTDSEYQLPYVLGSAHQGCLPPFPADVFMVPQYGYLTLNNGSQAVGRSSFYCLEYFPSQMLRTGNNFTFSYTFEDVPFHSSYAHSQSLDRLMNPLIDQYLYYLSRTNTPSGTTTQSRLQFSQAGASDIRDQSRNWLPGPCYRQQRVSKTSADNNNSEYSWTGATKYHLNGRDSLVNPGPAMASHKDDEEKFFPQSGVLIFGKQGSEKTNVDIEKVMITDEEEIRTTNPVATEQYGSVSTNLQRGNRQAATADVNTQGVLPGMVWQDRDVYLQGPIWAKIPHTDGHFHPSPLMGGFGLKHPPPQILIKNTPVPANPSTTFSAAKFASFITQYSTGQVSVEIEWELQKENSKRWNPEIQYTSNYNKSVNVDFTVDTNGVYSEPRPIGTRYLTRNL

B1: AVR21 with I319N, Y377F (receptor)
chain: MGSAGESDQNTLPKHEAQLNVYVLLVPPKGEASTYDWQLITHPRDYSGEMEGEHSQILKLSNLTPGLFEYRAVVEGQNAHSEGYVNVTVEPEPRKNRPPIAIVSPQFQEISLPTTSTVIDGSQSTDDDKIVQYHWEELKGPLREEKISEDTAILKLSQLVPGNYTFRLTVVDTDGATDSTTADLTVNKAVDHHHHHH
Take B1: the Remaining activity [%] worked out at 45.1%.

B2: AVR21 with Q347K, N472K (receptor)
chain: MGSAGESDQITLPKHEAQLNVYVLLVPPKGEASTYDWKLITHPRDYSGEMEGEHSQILKLSNLTPGLYEYRAVVEGQNAHSEGYVNVTVEPEPRKNRPPIAIVSPQFQEISLPTTSTVIDGSQSTDDDKIVQYHWEELKGPLREEKISEDTAILKLSQLVPGKYTFRLTVVDTDGATDSTTADLTVNKAVDHHHHHH
As to B2, the Remaining activity [%] is 58.9%.

B3: AVR21 with L321Q (receptor)
chain: MGSAGESDQITQPKHEAQLNVYVLLVPPKGEASTYDWQLITHPRDYSGEMEGEHSQILKLSNLTPGLYEYRAVVEGQNAHSEGYVNVTVEPEPRKNRPPIAIVSPQFQEISLPTTSTVIDGSQSTDDDKIVQYHWEELKGPLREEKISEDTAILKLSQLVPGNYTFRLTVVDTDGATDSTTADLTVNKAVDHHHHHH
B3: the Remaining activity [%] came to 34.2%.

B4: AVR21 with Q365R, V(A)381T, K497E (receptor)
chain: MGSAGESDQITLPKHEAQLNVYVLLVPPKGEASTYDWQLITHPRDYSGEMEGEHSRILKLSNLTPGLYEYRTVVEGQNAHSEGYVNVTVEPEPRKNRPPIAIVSPQFQEISLPTTSTVIDGSQSTDDDKIVQYHWEELKGPLREEKISEDTAILKLSQLVPGNYTFRLTVVDTDGATDSTTADLTVNEAVDHHHHHH
B4 displayed a Remaining activity [%] of 42%.

B5: AVR21 with Y344F, T350A, Y377N (receptor)
chain: MGSAGESDQITLPKHEAQLNVYVLLVPPKGEASTFDWQLIAHPRDYSGEMEGEHSQILKLSNLTPGLNEYRAVVEGQNAHSEGYVNVTVEPEPRKNRPPIAIVSPQFQEISLPTTSTVIDGSQSTDDDKIVQYHWEELKGPLREEKISEDTAILKLSQLVPGNYTFRLTVVDTDGATDSTTADLTVNKAVDHHHHHH
B5 showed a Remaining activity [%] of 34.4%.

B6: AVR21 with I366F, D435A (receptor)
chain: MGSAGESDQITLPKHEAQLNVYVLLVPPKGEASTYDWQLITHPRDYSGEMEGEHSQFLKLSNLTPGLYEYRAVVEGQNAHSEGYVNVTVEPEPRKNRPPIAIVSPQFQEISLPTTSTVIDGSQSTADDKIVQYHWEELKGPLREEKISEDTAILKLSQLVPGNYTFRLTVVDTDGATDSTTADLTVNKAVDHHHHHH
As for B6, the Remaining activity [%] was 38.4%.

B7: AVR21 with E384D, V396E (receptor)
chain: MGSAGESDQITLPKHEAQLNVYVLLVPPKGEASTYDWQLITHPRDYSGEMEGEHSQILKLSNLTPGLYEYRAVVDGQNAHSEGYVNETVEPEPRKNRPPIAIVSPQFQEISLPTTSTVIDGSQSTDDDKIVQYHWEELKGPLREEKISEDTAILKLSQLVPGNYTFRLTVVDTDGATDSTTADLTVNKAVDHHHHHH
B7 displayed a Remaining activity [%] of 45.3%.

B8: AVR21 with L321Q, T343S (receptor)
chain: MGSAGESDQITQPKHEAQLNVYVLLVPPKGEASSYDWQLITHPRDYSGEMEGEHSQILKLSNLTPGLYEYRAVVEGQNAHSEGYVNVTVEPEPRKNRPPIAIVSPQFQEISLPTTSTVIDGSQSTDDDKIVQYHWEELKGPLREEKISEDTAILKLSQLVPGNYTFRLTVVDTDGATDSTTADLTVNKAVDHHHHHH
The molecule B8 came in with a Remaining activity [%] of 50.4%.

B9: AVR21 with F(Y)379S (receptor)
chain: MGSAGESDQITLPKHEAQLNVYVLLVPPKGEASTYDWQLITHPRDYSGEMEGEHSQILKLSNLTPGLYESRAVVEGQNAHSEGYVNVTVEPEPRKNRPPIAIVSPQFQEISLPTTSTVIDGSQSTDDDKIVQYHWEELKGPLREEKISEDTAILKLSQLVPGNYTFRLTVVDTDGATDSTTADLTVNKAVDHHHHHH
The molecule B9 returned a Remaining activity [%] of 54.9%.

B10: AVR21 with I(V)382I (receptor)
chain: MGSAGESDQITLPKHEAQLNVYVLLVPPKGEASTYDWQLITHPRDYSGEMEGEHSQILKLSNLTPGLYEYRAIVEGQNAHSEGYVNVTVEPEPRKNRPPIAIVSPQFQEISLPTTSTVIDGSQSTDDDKIVQYHWEELKGPLREEKISEDTAILKLSQLVPGNYTFRLTVVDTDGATDSTTADLTVNKAVDHHHHHH
In turn, B10 had a Remaining activity [%] of 32.8%.

B11: AVR21 with T397A (receptor)
chain: MGSAGESDQITLPKHEAQLNVYVLLVPPKGEASTYDWQLITHPRDYSGEMEGEHSQILKLSNLTPGLYEYRAVVEGQNAHSEGYVNVAVEPEPRKNRPPIAIVSPQFQEISLPTTSTVIDGSQSTDDDKIVQYHWEELKGPLREEKISEDTAILKLSQLVPGNYTFRLTVVDTDGATDSTTADLTVNKAVDHHHHHH
With B11, the Remaining activity [%] came to 40.4%.

B12: AVR21 with E360D, H389R (receptor)
chain: MGSAGESDQITLPKHEAQLNVYVLLVPPKGEASTYDWQLITHPRDYSGEMDGEHSQILKLSNLTPGLYEYRAVVEGQNARSEGYVNVTVEPEPRKNRPPIAIVSPQFQEISLPTTSTVIDGSQSTDDDKIVQYHWEELKGPLREEKISEDTAILKLSQLVPGNYTFRLTVVDTDGATDSTTADLTVNKAVDHHHHHH
B12: the Remaining activity [%] turned out to be 46.7%.

B13: AVR21 with L367P, V412A (receptor)
chain: MGSAGESDQITLPKHEAQLNVYVLLVPPKGEASTYDWQLITHPRDYSGEMEGEHSQIPKLSNLTPGLYEYRAVVEGQNAHSEGYVNVTVEPEPRKNRPPIAIASPQFQEISLPTTSTVIDGSQSTDDDKIVQYHWEELKGPLREEKISEDTAILKLSQLVPGNYTFRLTVVDTDGATDSTTADLTVNKAVDHHHHHH
Molecule B13 registered a Remaining activity [%] of 35.8%.

B14: AVR21 with D345G, E454D (receptor)
chain: MGSAGESDQITLPKHEAQLNVYVLLVPPKGEASTYGWQLITHPRDYSGEMEGEHSQILKLSNLTPGLYEYRAVVEGQNAHSEGYVNVTVEPEPRKNRPPIAIVSPQFQEISLPTTSTVIDGSQSTDDDKIVQYHWEELKGPLREDKISEDTAILKLSQLVPGNYTFRLTVVDTDGATDSTTADLTVNKAVDHHHHHH
Molecule B14 returned a Remaining activity [%] of 61.7%.

B15: AVR21 with T343A, K(N)371D (receptor)
chain: MGSAGESDQITLPKHEAQLNVYVLLVPPKGEASAYDWQLITHPRDYSGEMEGEHSQILKLSDLTPGLYEYRAVVEGQNAHSEGYVNVTVEPEPRKNRPPIAIVSPQFQEISLPTTSTVIDGSQSTDDDKIVQYHWEELKGPLREEKISEDTAILKLSQLVPGNYTFRLTVVDTDGATDSTTADLTVNKAVDHHHHHH
The molecule B15 displayed a Remaining activity [%] of 40.5%.

B16: AVR21 with E378G (receptor)
chain: MGSAGESDQITLPKHEAQLNVYVLLVPPKGEASTYDWQLITHPRDYSGEMEGEHSQILKLSNLTPGLYGYRAVVEGQNAHSEGYVNVTVEPEPRKNRPPIAIVSPQFQEISLPTTSTVIDGSQSTDDDKIVQYHWEELKGPLREEKISEDTAILKLSQLVPGNYTFRLTVVDTDGATDSTTADLTVNKAVDHHHHHH
B16 gave a Remaining activity [%] of 58%.

B17: AVR21 with L376P (receptor)
chain: MGSAGESDQITLPKHEAQLNVYVLLVPPKGEASTYDWQLITHPRDYSGEMEGEHSQILKLSNLTPGPYEYRAVVEGQNAHSEGYVNVTVEPEPRKNRPPIAIVSPQFQEISLPTTSTVIDGSQSTDDDKIVQYHWEELKGPLREEKISEDTAILKLSQLVPGNYTFRLTVVDTDGATDSTTADLTVNKAVDHHHHHH
On to B17, for which the Remaining activity [%] was found to be 42.6%.

B18: AVR21 with K(N)371S, E453D, S466T (receptor)
chain: MGSAGESDQITLPKHEAQLNVYVLLVPPKGEASTYDWQLITHPRDYSGEMEGEHSQILKLSSLTPGLYEYRAVVEGQNAHSEGYVNVTVEPEPRKNRPPIAIVSPQFQEISLPTTSTVIDGSQSTDDDKIVQYHWEELKGPLRDEKISEDTAILKLTQLVPGNYTFRLTVVDTDGATDSTTADLTVNKAVDHHHHHH
In the case of B18, the Remaining activity [%] turned out to be 57.3%.

B19: AVR21 with K338R, A461P (receptor)
chain: MGSAGESDQITLPKHEAQLNVYVLLVPPRGEASTYDWQLITHPRDYSGEMEGEHSQILKLSNLTPGLYEYRAVVEGQNAHSEGYVNVTVEPEPRKNRPPIAIVSPQFQEISLPTTSTVIDGSQSTDDDKIVQYHWEELKGPLREEKISEDTPILKLSQLVPGNYTFRLTVVDTDGATDSTTADLTVNKAVDHHHHHH
Turning to B19, the Remaining activity [%] came to 36.4%.

B20: AVR21 with E340G (receptor)
chain: MGSAGESDQITLPKHEAQLNVYVLLVPPKGGASTYDWQLITHPRDYSGEMEGEHSQILKLSNLTPGLYEYRAVVEGQNAHSEGYVNVTVEPEPRKNRPPIAIVSPQFQEISLPTTSTVIDGSQSTDDDKIVQYHWEELKGPLREEKISEDTAILKLSQLVPGNYTFRLTVVDTDGATDSTTADLTVNKAVDHHHHHH
With B20, the Remaining activity [%] was 28.1%.

B21: AVR21 with L369S (receptor)
chain: MGSAGESDQITLPKHEAQLNVYVLLVPPKGEASTYDWQLITHPRDYSGEMEGEHSQILKSSNLTPGLYEYRAVVEGQNAHSEGYVNVTVEPEPRKNRPPIAIVSPQFQEISLPTTSTVIDGSQSTDDDKIVQYHWEELKGPLREEKISEDTAILKLSQLVPGNYTFRLTVVDTDGATDSTTADLTVNKAVDHHHHHH
For the molecule B21, the Remaining activity [%] came to 51.4%.

B22: AVR21 with L376P, P402S (receptor)
chain: MGSAGESDQITLPKHEAQLNVYVLLVPPKGEASTYDWQLITHPRDYSGEMEGEHSQILKLSNLTPGPYEYRAVVEGQNAHSEGYVNVTVEPESRKNRPPIAIVSPQFQEISLPTTSTVIDGSQSTDDDKIVQYHWEELKGPLREEKISEDTAILKLSQLVPGNYTFRLTVVDTDGATDSTTADLTVNKAVDHHHHHH
B22 registered a Remaining activity [%] of 35.1%.

B23: AVR21 with L367P (receptor)
chain: MGSAGESDQITLPKHEAQLNVYVLLVPPKGEASTYDWQLITHPRDYSGEMEGEHSQIPKLSNLTPGLYEYRAVVEGQNAHSEGYVNVTVEPEPRKNRPPIAIVSPQFQEISLPTTSTVIDGSQSTDDDKIVQYHWEELKGPLREEKISEDTAILKLSQLVPGNYTFRLTVVDTDGATDSTTADLTVNKAVDHHHHHH
B23 displayed a Remaining activity [%] of 35.7%.

(Values after patent publication EP4717706A1.)
